Source: the supplement of paper PMC12338614
± gives the uncertainty stated by the source.

B1: library; numbered along this chain (parent)
chain: MEVVDPQQLGMFTEGELMSVGMDTFIHRIDSTEVIYQPRRKRAKLIGKYLMGDLLGEGSYGKVKEVLDSETLCRRAVKILKKKKLRRIPNGEANVKKEIQLLRRLRHKNVIQLVDVLYNEEKQKMYMVMEYCVCGMQEMLDSVPEKRFPVCQAHGYFCQLIDGLEYLHSQGIVHKDIKPGNLLLTTGGTLKISDLGVAEALHPFAADDTCRTSQGSPAFQPPEIANGLDTFSGFKVDIWSAGVTLYNITTGLYPFEGDNIYKLFENIGKGSYAIPGDCGPPLSDLLKGMLEYEPAKRFSIRQIRQHSWFRKKHPPAEAPVPIPPSPDTKDRWRSMTVVPYLEDLHGADEDEDLFDIEDDIIYTQDFTVPGQVPEEEASHNGQRRGLPKAVCMNGTEAAQLSTKSRAEGRAPNPARKACSASSKIRRLSACKQQ

Variants of: B1
Assay: STK11 functional score (HeLa growth suppression), rescaled enrichment; synonymous median = 1, nonsense median = 0 (normalised score)
Settings: with HeLa; variant type: missense
Method: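 Deep mutational scan (TileSeq/POPCode codon randomisation) of full-length codon-optimised STK11 cDNA integrated at a Bxb1 landing pad (AAVS1) in HeLa cells. Restoring functional STK11 suppresses HeLa proliferation. Variant frequencies were measured by NGS before and after about two weeks of growth. The error-corrected enrichment log-ratio was rescaled so that synonymous median = 1 and nonsense median = 0, scores above 1 were compressed, and codon-level and three biological replicate scores were combined; error is the bootstrapped standard error. Scale: synonymous median = 1, nonsense median = 0; below 0.5 = damaging.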

STK11 functional score: each site, then its substitutions
R74: V 0.653 ± 0.33; P 1.27 ± 0.19; T -0.214 ± 0.22; L 1.42 ± 0.094; S 0.519 ± 0.21
K81: D 1.28 ± 0.56; T 1.35 ± 0.3; Q 0.882 ± 0.35; Y 1.29 ± 0.37; L 1.1 ± 0.13; P 0.992 ± 0.18; I 1.19 ± 0.12; F 0.987 ± 0.086; W 0.565 ± 0.079; V 0.987 ± 0.11; H 1.25 ± 0.083; S 0.932 ± 0.1; G 1.04 ± 0.1; A 1.66 ± 0.18; N 1.37 ± 0.34; R 1.21 ± 0.16
K97: S 0.724 ± 0.17; D 1.27 ± 0.21; Q 0.688 ± 0.72; P 1.1 ± 0.4; G 0.699 ± 0.38; L 0.76 ± 0.24; N 1.21 ± 0.42; V 0.998 ± 0.2; T 1.32 ± 0.48; A 1.47 ± 0.27; W 0.46 ± 0.082; E 1.42 ± 0.45; C 0.937 ± 0.18
K96: G 1.31 ± 0.19; Q 0.724 ± 0.15; H 1.33 ± 0.072; I 1.08 ± 0.17; S 1.11 ± 0.12; Y 1.23 ± 0.31; V 0.667 ± 0.17; P 0.38 ± 0.12; T 1.05 ± 0.082; E 0.384 ± 0.32; F 0.801 ± 0.17; N 1.14 ± 0.35; D 1.27 ± 0.25; L 0.614 ± 0.26; R 1.18 ± 0.16; W 0.729 ± 0.42
R87: G 1.11 ± 0.083; S 0.989 ± 0.55; L 1.18 ± 0.15; P 1.24 ± 0.12; Y 1.6 ± 0.29; I 1.45 ± 0.17; A 0.186 ± 0.13; V 1.08 ± 0.43; T 1.48 ± 0.38; K 0.613 ± 0.69
R86: G 1.3 ± 0.46; M -0.183 ± 0.08; D 1.68 ± 0.19; I 1.24 ± 0.1; T 1.69 ± 0.18; L 0.854 ± 0.11; A 1.26 ± 0.17; V 1.4 ± 0.26; E 1.6 ± 0.14; P 1.3 ± 0.17; W 0.178 ± 0.085
P89: S 0.816 ± 0.17; H 1.3 ± 0.17; L 0.532 ± 0.24; W 1.08 ± 0.16; C 1.29 ± 0.072; G 0.213 ± 0.086; A 1.1 ± 0.3; M 1.55 ± 0.16; T 0.786 ± 0.13; R 0.754 ± 0.1; I 1.41 ± 0.25; Q 1.4 ± 0.12; N 1.67 ± 0.19; V 0.683 ± 0.088; Y 0.644 ± 0.31; D 0.0497 ± 0.083; E 1.68 ± 0.19
K82: D 1.17 ± 0.19; C 1.23 ± 0.15; H 1.08 ± 0.22; P 1.69 ± 0.18; G 1.23 ± 0.17; V 0.966 ± 0.26; A 1.43 ± 0.15; S 1.15 ± 0.26; Q 1.7 ± 0.18; E 1.36 ± 0.75; L 1.49 ± 0.16; W 1.33 ± 0.33; F 0.966 ± 0.26; R 1.66 ± 0.4; T 1.56 ± 0.17; I 1.3 ± 0.54
I99: F 1.64 ± 0.16; E 1.65 ± 0.16; G 0.767 ± 0.3; D 0.335 ± 0.1; C 1.57 ± 0.18
N90: I 0.781 ± 0.2; P 1.08 ± 0.3; L 1 ± 0.12; W 0.707 ± 0.4; G 1.63 ± 0.19; S 1.21 ± 0.14; T 0.558 ± 0.27; V 1.17 ± 0.3; K -0.0122 ± 0.3; D 1.23 ± 0.21; R 1.01 ± 0.18; A 1.14 ± 0.72
V77: I 1.4 ± 0.13; L 1.04 ± 0.22; W 0.824 ± 0.077; T 1.57 ± 0.19; S 0.46 ± 0.12; D 0.0184 ± 0.081; Q 0.597 ± 0.56; P 0.512 ± 0.16; R 0.469 ± 0.17; G 0.0665 ± 0.079
K78: Y -0.374 ± 0.076; S -0.111 ± 0.1; A -0.0486 ± 0.23; C 0.21 ± 0.078; P -0.226 ± 0.12; H -0.114 ± 0.081; G 0.0293 ± 0.084; N 0.219 ± 0.18; I -0.0791 ± 0.14; L 0.107 ± 0.12; F 0.0316 ± 0.078; T 0.086 ± 0.54; Q 1.1 ± 0.12; W -0.148 ± 0.077; D -0.161 ± 0.078; V -0.0951 ± 0.078
A93: S 0.907 ± 0.2; R 1.6 ± 0.19; H 1.66 ± 0.18; W 1.63 ± 0.1; P 1.68 ± 0.42; L 1.12 ± 0.26; V 0.101 ± 0.08; G 0.685 ± 0.085
I88: M 0.899 ± 0.094; C 1.07 ± 0.28; R 1.65 ± 0.19; T 1.48 ± 0.39; Q -0.36 ± 0.084; L 1.24 ± 0.26; V 0.87 ± 0.1; G 0.665 ± 0.23; F 0.793 ± 0.079; W 0.401 ± 0.49; S 1.16 ± 0.26; E 1.53 ± 0.18; D 1.58 ± 0.25; Y 1.67 ± 0.21
L80: E 1.41 ± 0.38; G 0.429 ± 0.082; I 0.964 ± 0.13; S 0.479 ± 0.1; R 0.408 ± 0.11; Y 1.13 ± 0.23; W 1.47 ± 0.25; A 1.21 ± 0.22; N 0.951 ± 0.37; H 0.878 ± 0.092; M 0.45 ± 0.67; V 0.484 ± 0.079; Q 1.45 ± 0.09
L85: P 1.41 ± 0.18; W 1.16 ± 0.086; C 1.1 ± 0.34; I 1.56 ± 0.2; S 1.29 ± 0.17; Y 0.234 ± 0.093; V 1.15 ± 0.15; A 1.62 ± 0.21; T -0.0975 ± 0.19; G 0.21 ± 0.094; E 1.7 ± 0.4
I79: P 0.0986 ± 0.19; V 0.313 ± 0.085; Q 1.51 ± 0.18; S 0.761 ± 0.099; H -0.113 ± 0.19; R 0.967 ± 0.28; C 0.264 ± 0.28; L 0.451 ± 0.14; F 0.321 ± 0.076; W -0.0803 ± 0.077; Y -0.0325 ± 0.073; G 0.345 ± 0.22; E 0.0444 ± 0.2; M 0.465 ± 0.1
N94: D 1.31 ± 0.14; I 1.14 ± 0.21; S 1.27 ± 0.34; T 1.27 ± 0.18; P 1.21 ± 0.64; Q 1.2 ± 0.65; W 0.162 ± 0.14; L 0.89 ± 0.17; F 0.728 ± 0.22; C 1.1 ± 0.2; G 0.953 ± 0.18; Y 0.568 ± 0.34; M 0.437 ± 0.077; V 0.637 ± 0.13; E 0.862 ± 0.32; R 1.37 ± 0.14; A 0.173 ± 0.19; H 1.35 ± 0.3
K84: S 1.71 ± 0.19; V 0.24 ± 0.085; L 1.64 ± 0.17; G 1.47 ± 0.4; P 1.52 ± 0.45; W 1.14 ± 0.17; T 0.646 ± 0.11; N 0.967 ± 0.3; C 1.68 ± 0.42; E 0.845 ± 0.33
A76: G 1.09 ± 0.1; Q 0.447 ± 0.14; F 0.0284 ± 0.091; M -0.216 ± 0.42; L -0.332 ± 0.077; W -0.171 ± 0.28; H 0.362 ± 0.17; C 1.32 ± 0.13; Y 0.13 ± 0.083; I 1.4 ± 0.15; V 1.06 ± 0.077; R -0.417 ± 0.081; S 1.12 ± 0.2
K83: P 1.64 ± 0.41; L 0.484 ± 0.22; Y 1.15 ± 0.15; W 1.53 ± 0.11; I 1.29 ± 0.08; A 1.58 ± 0.36; C 1.39 ± 0.23; T 0.156 ± 0.58; Q 0.343 ± 0.37; V 1.05 ± 0.48; N 1.3 ± 0.39; E 1.48 ± 0.68; S 1.7 ± 0.19
R75: V 1.27 ± 0.37; S 0.619 ± 0.16; G 1.56 ± 0.46; C 1.55 ± 0.091; N -0.061 ± 0.19; T 0.85 ± 0.23; W 0.21 ± 0.14; L 0.841 ± 0.13; K 1.51 ± 0.44; Y 1.5 ± 0.23; M 0.00187 ± 0.29; F 1.08 ± 0.19; A 1.68 ± 0.19; D 1.68 ± 0.28; I 1.18 ± 0.099
E98: L 0.433 ± 0.22; G 0.397 ± 0.099; Q 0.273 ± 0.089; I 0.496 ± 0.18; W 0.16 ± 0.15; A 0.326 ± 0.083; M 0.133 ± 0.46; R 0.172 ± 0.083; V 0.117 ± 0.083; S 1.49 ± 0.16; T 0.259 ± 0.093; H 0.617 ± 0.08; K 1.12 ± 0.67; Y 0.182 ± 0.18
V95: R 1.02 ± 0.16; Q 1.46 ± 0.45; E 0.927 ± 0.43; W 0.452 ± 0.08; A 1.28 ± 0.19; P 1.65 ± 0.3; N 1.6 ± 0.14; G 0.326 ± 0.15; D 1.5 ± 0.27; Y 1.55 ± 0.17; L 0.889 ± 0.12; S 1.4 ± 0.18; C 0.913 ± 0.28; T 1.62 ± 0.22; H 1.64 ± 0.19; F 0.945 ± 0.26
E92: C 1.68 ± 0.18; L 1.01 ± 0.15; V 1.02 ± 0.09; S 0.979 ± 0.19; Y 1.32 ± 0.26; Q 1.16 ± 0.51; N 1.39 ± 0.11; W 1.03 ± 0.61; M -0.344 ± 0.13; T 1.62 ± 0.18; R 1.64 ± 0.4; F 1.56 ± 0.53; A 1.31 ± 0.35; I -0.0755 ± 0.16
G91: P 1.62 ± 0.19; C 0.164 ± 0.23; R 1.03 ± 0.16; F 0.906 ± 0.23; I 1.63 ± 0.22; M 0.64 ± 0.2; S 0.833 ± 0.096; Q 1.1 ± 0.13; A 0.99 ± 0.19; V 0.481 ± 0.08; N 1.38 ± 0.089; L 1.54 ± 0.13; K 0.301 ± 0.33; H 0.418 ± 0.46
